Changes are numbered by the printed parent chain.
T1: RXFP1 F66A (Homo sapiens, UniProt Q9HBX9, F88A)
T1 construct: cells expressing full-length RXFP1 and mutants; expressed in transfected cells; host or cells: HEK293T
T1 sequence (Q9HBX9 23-757 F88A limits assumed): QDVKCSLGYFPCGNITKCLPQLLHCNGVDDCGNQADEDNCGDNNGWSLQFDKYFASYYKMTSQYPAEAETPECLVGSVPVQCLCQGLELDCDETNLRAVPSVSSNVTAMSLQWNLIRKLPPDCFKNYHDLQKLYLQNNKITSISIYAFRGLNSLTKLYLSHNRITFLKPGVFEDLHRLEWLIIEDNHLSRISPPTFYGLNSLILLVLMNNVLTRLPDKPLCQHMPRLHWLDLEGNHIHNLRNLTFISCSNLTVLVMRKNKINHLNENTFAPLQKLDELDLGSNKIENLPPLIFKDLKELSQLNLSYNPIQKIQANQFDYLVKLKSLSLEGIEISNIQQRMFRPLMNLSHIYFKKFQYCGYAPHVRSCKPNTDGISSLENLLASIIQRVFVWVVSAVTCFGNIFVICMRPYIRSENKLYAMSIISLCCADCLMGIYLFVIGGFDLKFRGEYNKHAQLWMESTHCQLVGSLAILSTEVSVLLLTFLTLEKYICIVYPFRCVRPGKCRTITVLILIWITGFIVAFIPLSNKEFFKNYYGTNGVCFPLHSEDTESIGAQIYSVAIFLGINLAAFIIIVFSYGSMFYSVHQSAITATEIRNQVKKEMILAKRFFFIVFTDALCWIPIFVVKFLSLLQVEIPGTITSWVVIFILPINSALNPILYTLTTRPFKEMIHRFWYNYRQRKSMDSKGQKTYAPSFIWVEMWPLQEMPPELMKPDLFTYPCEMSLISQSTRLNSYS

T2: RXFP1 D51A (Homo sapiens, UniProt Q9HBX9, D51A/D73A)
T2 construct: cells expressing full-length RXFP1 and mutants; expressed in transfected cells; host or cells: HEK293T
T2 sequence (Q9HBX9 23-757 D51A/D73A limits assumed): T1 sequence (Q9HBX9 23-757 F88A limits assumed) with D29A, D51A, A66F

T3: RXFP1_((1–72)) (human)
T3 sequence (Q9HBX9 1-72, looked up): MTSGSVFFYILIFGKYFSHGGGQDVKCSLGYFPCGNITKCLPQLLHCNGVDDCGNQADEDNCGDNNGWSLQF

B1: H2 relaxin (ligand, human)
chain 1: QLYSALANKCCHVGCTKRSLARFC
chain 2: DSWMEEVIKLCGRELVRAQIAICGMSTWS

Legend:
RXFP1 F66A = target: T1, RXFP1 F66A; assay: cAMP activity assay (pCRE β-galactosidase reporter), transfected HEK293T cells; type: cell-based; conditions: construct F66A, ±s.e.m.
Method in brief: (§1)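 H2 relaxin dilutions in minimal media with 1% DMSO; 5 μM Forskolin as positive control, media/1% DMSO as negative. After freezing at −80 °C, cells lysed in pH 8.0 phosphate buffers and chlorophenol red-β-D-galactopyranoside added; absorbance read at 570 nm. Responses given as % of 5 μM Forskolin maximum.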

RXFP1 D51A = target: T2, RXFP1 D51A; assay: as above; type: cell-based; conditions: construct D51A, ±s.e.m.
Method in brief: as §1

RXFP1_((1–72)) (human) = target: T3, RXFP1_((1–72)) (human); assay: NMR titration; 2D 1H-15N HSQC; 50 μM 15N-labelled RXFP1(1–72) titrated with 25-500 μM H2 relaxin; 50 mM imidazole, 10 mM CaCl2, pH 6.8, 25 °C; fit of the shifts of Asp51, Ala55 and Thr61
[1] = percentage of maximum response to 5 μM Forskolin

Molecule | H2 relaxin pEC50 (RXFP1 F66A; cAMP reporter) | H2 relaxin Emax (RXFP1 F66A; [1]) | H2 relaxin pEC50 (RXFP1 D51A; cAMP reporter) | H2 relaxin Emax (RXFP1 D51A; [1]) | Kd (RXFP1_((1–72)) (human)) [µM]
H2 relaxin: two-chain 6-kDa peptide hormone structurally related to insulin; recombinant human gene-2 H2 relaxin provided by Corthera | 11.20±0.08 | 88.29±3.52 (3) % | 11.01±0.56 (3) | 96.5±4.0 (3) % | 
B1 |  |  |  |  | 200
